Patent US20110033543A1 (UNIVERSITY OF DELAWARE, published 2011)
Ends that are not written are not given here.

Assays:
[1] = target: the molecule itself; assay: circular dichroism, concentration dependence of MRE at 222 nm in PBS, fit for the Kd of the dimerization; isolated PF4ZIP, not conjugated to PEG
Protocol: Samples were equilibrated at the desired temperature for 30 minutes prior to data collection; equilibration was indicated by the absence of further changes in the CD signal at longer equilibration times. All CD spectra were taken in a 1 mm path length quartz cuvette, at wavelengths from 200 to 250 nm. Data points were recorded at every nanometer with a 4.0 s response time. The concentrations of peptide samples were determined via amino acid analysis for calculation of mean residue ellipticities.
The conformation of PF₄ZIP at various concentrations was also monitored via CD. […] The difference between the measured ellipticity and the ellipticity of the unfolded monomer is related to concentration and can be fit to determine the Kd of the dimerization, via standard fitting procedures well-described in the literature.

streptavidin (SA chip) = target: T1, streptavidin (SA chip) (UniProt P22629 37-163, limits assumed); assay: SPR, Biacore 3000, streptavidin-coated chip
T1 construct: Chip surface of the SPR experiments; also called SA chips; streptavidin-coated chip
T1 sequence (P22629 37-163 limits assumed): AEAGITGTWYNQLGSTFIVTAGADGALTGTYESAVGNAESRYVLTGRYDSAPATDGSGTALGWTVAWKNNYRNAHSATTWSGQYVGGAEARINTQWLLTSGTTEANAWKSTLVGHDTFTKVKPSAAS
Protocol: Surface Plasmon Resonance (SPR). SPR sensorgrams were recorded on a BiaCore 3000 instrument (Biacore Inc, Piscataway, N.J.), employing a high-capacity LMWH surface created on a commercially available streptavidin-coated chip via treatment with biotinylated LMWH.
In SPR experiments, the interaction of the peptides with a LMWH-modified SA chip surface was determined under conditions described in the experimental section.

B1: PF4ZIP (peptide)
peptide: CGGRMKQLEDKVKKLLKKNYHLENEVARLKKLVG-NH2
modifications: also: coiled-coil dimer
notes: also called coiled-coil PF4ZIP
Kd [1]: 3.48 µM | binding result (streptavidin (SA chip)): no binding
